PMC10667646

Molecular target: T1, His-Lmo2795 (RpiR-family transcriptional regulator) (Listeria monocytogenes) (UniProt Q8Y3P0)
T1 sequence: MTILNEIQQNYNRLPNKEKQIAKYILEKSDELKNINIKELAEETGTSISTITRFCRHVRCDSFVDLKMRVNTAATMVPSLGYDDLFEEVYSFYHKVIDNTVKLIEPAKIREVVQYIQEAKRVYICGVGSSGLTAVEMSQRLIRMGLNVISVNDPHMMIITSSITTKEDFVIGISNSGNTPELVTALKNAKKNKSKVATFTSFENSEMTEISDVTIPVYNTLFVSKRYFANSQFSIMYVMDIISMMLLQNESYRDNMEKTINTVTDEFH
Test: EMSA
Conditions: 10 mM Tris-HCl pH 7.5, 50 mM NaCl, 10% glycerol, 5 mM EDTA, 20 mM DTT, 25 C, 20 min; 8% native PAGE in 0.5x TBE at 4 C

Row | Sequence | binding
1 | CGGAACACCCAACAAATTACCAATCGAATAAACTAAAAAAGTCCTTTCAAACGAAAGGACTTTTTATTTTTAACAACAACGTCATTTTTTAAAGCTAGTTTCCGCAACTATCCACGCTAAAATATGAAAATCATTTTCATTTAATCGATATTGATAAAATCATTTTCTTGTGATATAGTCTGTTTGAAAACGCATACTTTACACTGAAACACAGTATAGAGGAGGAGTATCAGTGGGCAATTCTGTTATGGAAAAAATCAAAGGTGGGTTAG (double strand) [lmo2795-nanE operon upstream (promoter) region] | binds
2 | CTTTAATATCCTCTAAGCCAGCATTTTTGATTTTTTTCTGTAGCACCGTCGCGCCCATTGCACTGGATCCAAGCCCCGCATCACAAGCATAGGCGATTCTTTTAACATTTTTAAAATTAAAATCATCTACTGGAGCTTCGAAAACAGAGGAAATACTACTTTTTTTGCCTTTAAGACCTTCCATTTTCTTCGCTGCATCTTG (double strand) [unspecific control, region within the lmo2795-nanE operon] | no binding
